From paper PMC3537886 (Nature structural & molecular biology, 2012)

What was measured:
[1] = biological target: biotinylated soluble leucine-zippered HLA-DO with αP10aA (bio-szDOv), beta chain with C-terminal Avitag (human) (UniProt P06340); experiment: BLI
[2] = biological target: soluble HLA-DM (sDM), wild type (human, UniProt P28067;P28068); experiment: enzyme inhibition kinetics

Q: “sDM mutant αR98E,R194E (from UniProt P28067;P28068) (complex)” was tested. Which binding affinity relative to the wild type (fold of the wild-type affinity) [1] did it give?
A: 0.0025

B1: soluble HLA-DO Ig-fusion protein (sDO-Fc) (Fc fusion)
chain 1: TKADHMGSYGPAFYQSYGASGQFTHEFDEEQLFSVDLKKSEAVWRLPEFGDFARFDPQGGLAGIAAIKAHLDILVERSNRSRAINVPPRVTVLPKSRVELGQPNILICIVDNIFPPVINITWLRNGQTVTEGVAQTSFYSQPDHLFRKFHYLPFVPSAEDVYDCQVEHWGLDAPLLRHWELQVPIPPPDAME
chain 2: TDSPEDFVIQAKADCYFTNGTEKVQFVVRFIFNLEEYVRFDSDVGMFVALTKLGQPDAEQWNSRLDLLERSRQAVDGVCRHNYRLGAPFTVGRKVQPEVTVYPERTPLLHQHNLLHCSVTGFYPGDIKIKWFLNGQEERAGVMSTGPIRNGDWTFQTVVMLEMTPELGHVYTCLVDHSSLLSPVSVEWRAQSEYSWRK
Q: B1 was tested. Which Ki [2] did it give?
A: 290 ± 20 nM
